# Experimental data: PMC3632125 (Nucleic Acids Research, 2013)
# T1: Psy3 (S. cerevisiae, UniProt Q12318 1-242)
# T1 sequence: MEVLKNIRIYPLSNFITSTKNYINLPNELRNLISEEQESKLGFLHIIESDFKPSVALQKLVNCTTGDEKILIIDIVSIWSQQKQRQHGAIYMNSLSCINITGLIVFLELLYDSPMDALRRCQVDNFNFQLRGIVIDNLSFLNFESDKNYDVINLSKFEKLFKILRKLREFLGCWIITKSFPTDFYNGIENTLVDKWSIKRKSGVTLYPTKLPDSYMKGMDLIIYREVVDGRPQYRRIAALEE
# T2: Csm2;Psy3 (Saccharomyces cerevisiae;Saccharomyces …, UniProt P40465;Q12318 1-213;1-242, |)
# T2 sequence 1: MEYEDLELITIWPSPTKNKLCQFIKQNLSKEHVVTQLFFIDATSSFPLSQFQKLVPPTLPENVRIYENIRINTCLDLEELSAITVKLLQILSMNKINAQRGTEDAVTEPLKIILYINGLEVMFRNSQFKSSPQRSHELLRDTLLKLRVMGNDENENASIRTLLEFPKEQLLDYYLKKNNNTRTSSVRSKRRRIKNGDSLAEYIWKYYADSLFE
# T2 sequence 2: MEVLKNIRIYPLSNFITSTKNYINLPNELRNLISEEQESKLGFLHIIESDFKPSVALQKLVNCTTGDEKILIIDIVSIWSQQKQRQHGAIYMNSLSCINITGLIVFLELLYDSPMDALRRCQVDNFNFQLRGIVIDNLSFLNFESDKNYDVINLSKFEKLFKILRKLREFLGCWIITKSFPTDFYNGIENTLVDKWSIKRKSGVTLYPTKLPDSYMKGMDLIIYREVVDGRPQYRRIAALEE
# Columns and labels:
# [1] = biological target: T1, Psy3; assay: SEC
# [2] = biological target: T2, Csm2;Psy3; assay: fluorescence anisotropy
# [3] = biological target: T2, Csm2;Psy3; assay: competition
binder,measurement,setting,value
Csm2 (natural protein) MEYEDLELITIWPSPTKNKLCQFIKQNLSKEHVVTQLFFIDATSSFPLSQFQKLVPPTLPENVRIYENIRINTCLDLEELSAITVKLLQILSMNKINAQRGTEDAVTEPLKIILYINGLEVMFRNSQFKSSPQRSHELLRDTLLKLRVMGNDENENASIRTLLEFPKEQLLDYYLKKNNNTRTSSVRSKRRRIKNGDSLAEYIWKYYADSLFE,binding result,[1],binds
fluorescein-labelled fork (mixed) DNA 1: TTTTTTTTTTTTTTTTTTTTCTTGACAAGCTTGCGCACT DNA 2: AGTGCGCAAGCTTGTCAAGGCACTTTTTTTTTTTTTTTT,Kd,[2],361 ± 10.9 nM
3'-overhang (mixed) DNA 1: CTGCGAGCTCGAATTCACTGGAGTGACCTC DNA 2: GAGGTCACTCCAGTGAATTCGAGCTCGCAGTGTCTAGGTCGTGACTTTGA,binding result,[3],binds
